Usually EC50 stands for the concentration giving half of the maximal effect.

Assay [1] has as its target T1, cynomolgus monkey DR4 with death domain deletion on ExpiCHO-S cells (cynomolgus monkey (Macaca fascicularis)).
T1 construct: also called cynomolgus DR4
T1 chain: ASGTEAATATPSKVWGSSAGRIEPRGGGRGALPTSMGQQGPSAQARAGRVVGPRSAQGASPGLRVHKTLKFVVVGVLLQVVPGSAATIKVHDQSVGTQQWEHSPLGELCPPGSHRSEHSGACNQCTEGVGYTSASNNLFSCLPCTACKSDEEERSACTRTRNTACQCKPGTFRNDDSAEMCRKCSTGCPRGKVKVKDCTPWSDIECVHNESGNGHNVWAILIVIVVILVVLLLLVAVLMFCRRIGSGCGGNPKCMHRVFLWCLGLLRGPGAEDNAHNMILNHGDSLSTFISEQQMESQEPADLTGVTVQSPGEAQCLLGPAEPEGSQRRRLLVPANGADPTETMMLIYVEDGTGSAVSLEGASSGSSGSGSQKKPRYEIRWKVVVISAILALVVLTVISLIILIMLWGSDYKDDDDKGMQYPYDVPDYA
As to the kind of experiment: flow cytometry, ExpiCHO-S cells expressing cynomolgus monkey DR4, n = 2. As for the experimental part:
Binding of BisG1-FAPα-FERL/DR4-FERR, BisG1-DR4-FEAL/b12-FEAR and IgG1-DR4-FERR to DR4 of various species commonly used for nonclinical toxicology studies was assessed by flow cytometry using ExpiCHO-S cells transiently expressing DR4 from different animal species. In contrast to other species, rodents only express one DR which has highest homology with human DR5. Therefore, ExpiCHO-S cells transiently expressing rat and mouse DR protein were used instead. All DR constructs lack the intracellular DD to avoid apoptosis of transfected cells upon DR(4) activation. IgG1-b12 was used as negative control.
On the technique in general: Flow cytometry measures light scatter and fluorescence of single cells or particles in a stream.

Assay [2] addresses T2, His-tagged recombinant human FAPα (R&D Systems, Cat #3715-SE) (human, UniProt Q12884 26-760).
T2 construct: not shown: His tag
T2 sequence (looked up): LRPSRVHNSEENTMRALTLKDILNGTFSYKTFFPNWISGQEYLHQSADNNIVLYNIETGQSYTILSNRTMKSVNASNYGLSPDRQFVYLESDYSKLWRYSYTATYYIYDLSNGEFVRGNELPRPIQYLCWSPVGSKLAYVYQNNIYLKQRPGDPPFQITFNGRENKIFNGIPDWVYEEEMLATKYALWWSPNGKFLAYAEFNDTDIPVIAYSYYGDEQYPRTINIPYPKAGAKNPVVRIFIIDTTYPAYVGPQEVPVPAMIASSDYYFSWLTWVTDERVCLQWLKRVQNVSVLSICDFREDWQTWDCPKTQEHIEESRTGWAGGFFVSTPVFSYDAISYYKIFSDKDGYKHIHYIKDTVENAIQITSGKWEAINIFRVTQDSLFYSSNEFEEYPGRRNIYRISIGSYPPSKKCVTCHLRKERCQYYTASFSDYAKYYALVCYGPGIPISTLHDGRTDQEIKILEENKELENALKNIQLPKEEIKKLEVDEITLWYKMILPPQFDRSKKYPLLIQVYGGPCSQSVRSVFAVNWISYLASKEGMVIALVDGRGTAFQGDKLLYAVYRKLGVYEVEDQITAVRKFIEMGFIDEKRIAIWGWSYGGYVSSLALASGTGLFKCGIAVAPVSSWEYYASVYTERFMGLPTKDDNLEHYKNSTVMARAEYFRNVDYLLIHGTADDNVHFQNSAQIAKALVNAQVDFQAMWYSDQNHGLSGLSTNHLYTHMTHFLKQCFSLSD
The assay can be described thus: BLI sandwich cross-block assay. As for the experimental part: Sandwich cross-block experiments were carried out while shaking at 1,000 RPM at 30° C. […] The activated AR2G sensors were loaded with 10 μg/mL of the first antibody in 10 mM Sodium Acetate pH 6.0 (ForteBio, cat. no. 18-1070) for 600 s and quenched with 1 M ethanolamine pH 8.5 (ForteBio, Cat. #18-1071) for 300 s. After a baseline measurement in Sample Diluent (30 s; FortéBio, Cat. #18-1048), the AR2G biosensors containing immobilized antibodies were loaded for 200 s with His-tagged recombinant human FAPα (R&D Systems, Cat #3715-SE, 100 nM in Sample Diluent) for 200 s. The theoretical molecular mass of His-tagged recombinant human FAPα protein based on the amino acid sequence (86 kDa) was used for calculations. The association (200 s) of a second antibody (5 μg/mL in Sample Diluent) was determined. Sensors were regenerated by exposure to 10 mM glycine pH 2.5 (Riedl-deHaen, Cat. #15527) for 5 s, followed by neutralization in Sample Diluent for 5 s; both steps were repeated twice. Subsequently, the sensors containing immobilized first antibody were used again, starting with the baseline step.
Data were acquired using Data Acquisition Software v9 (ForteBio) and analyzed with Data Analysis HT Software v9 (ForteBio). The Y-axis was aligned to the start of the association step and Savitzky-Golay filtering was applied. […]

B1: IgG1-DR4-FERR (antibody, V domains shown)
VH: QVQLQESGPGLVKPSGTLSLTCAVSGGSISSYSWWSWIRQPPGKGLEWIGELYHSGSTNYNPSLKSRVTISVDKSKNQFSLKLRSVTAADTAVYYCVRGVATIDYWGQGTLVTVSS
VL: QSALTQPPSASGSPGQSVTISCTGTSSDVGGYNFVSWYQQDPGKAPKLLIYEVTKRPSGVPDRFSGSKSGNTASLTVSGLQAEDEADYYCSSYAGSNNVMFGGGTKLTVLG
notes: Bivalent monoclonal IgG1 lambda
B1 displayed an EC50 in assay [1] of 1.94 µg/mL.

B2: IgG1-b12 (antibody)
heavy: not shown
light: EIVLTQSPGTLSLSPGERATFSCRSSHSIRSRRVAWYQHKPGQAPRLVIHGVSNRASGISDRFSGSGSGTDFTLTITRVEPEDFALYYCQVYGASSYTFGQGTKLERKRTVAAPSVFIFPPSDEQLKSGTASVVCLLNNFYPREAKVQWKVDNALQSGNSQESVTEQDSKDSTYSLSSTLTLSKADYEKHKVYACEVTHQGLSSPVTKSFNRGEC
notes: HIV gp120 antibody b12 with wild-type IgG1 Fc; also called IgG-b12
For the molecule B2, the binding result in assay [2] was “no binding”.

For the origin of these results see patent publication US20250002610A1 (Genmab, published 2025).
